Experimental data: patent US20230382979A1 (ADAPTIVE BIOTECHNOLOGIES, published 2023)
Positions count from the first letter of the chain named. Read-outs that look alike come from different tables or passages of the source.

B1: antibody 1872 (antibody, V domains shown)
VH: EVQLVESGGGLVKPGGSLRLSCAASGFSFSLYTMNWVRQAPGKGLEWVSYISSSSSYRYYADSVKGRFSVSRDNAKNALYLQMNGLRAEDTAVYYCARDGYCPRGVCTYYGMDVWGQGTTVTVSA
VL: EIVMTQSPATLSVSPGERATLSCRASQSVGSRLAWYQQKPGQAPRLLIYDATIRATGIPARFSGSGSGTDFTLTISGLQSEDFAVYYCQRYNNWPPAYTFGQGTKLEIK
B2: antibody 1859 (antibody, V domains shown)
VH: B1 VH with S30N, L31T, R58K, A61S, N77K, A78S, R104N, A125L
VL: B1 VL with G30S, R32N, D50G, T52S, I53T, D70E, Y87F, R90Q, N92S, N93K
B3: antibody 2080 (antibody, V domains shown)
VH: QVQLQQWGAGLLKPSETLSLTCAVYGGSFSGYYWSWIRQPPGKGLEWIGRINDIGSTDYNPSLKSRVTISVDTSKNQFSLKLTSVTAADTAVYYCAREPFDSEGTFDYWGQGTLVIVSS
VL: DIQMTQPPSTLSASVGDRVTITCRASQSISRWLAWYRQKPGKAPKLLIYDASSLQSGVPSRFSGSGSGTEFTLTISSLQPDDLATYYCQQYNTYPYTFGQGTKLEIK
B4: antibody 2024 (antibody, V domains shown)
VH: QVQLVQSGAEVKKPGASVKVSCKVSGYTLIELSMHWVRQAPGKGLEWMGGFDPEEGETIYAQKFQGRVTMTEDTSTDTAYMELSSLRSEDTAVYYCTTSPPVGATGAWFDPWGQGTLVTVSA
VL: SYVLTQPPSVSVAPGKTARITCGGNNIGSKSVHWYQQKPGQAPVLVVYDDSDRPSGIPERFSGSNSGNTATLTISGLQAEDEADYYCSSYTSSSTVVFGGGTKLTVL

Experiments:
[1] = target: SARS-CoV-2 spike protein, WA1/2020, borne on lentiviral pseudovirus (SARS-CoV-2, WA01/2020 strain, UniProt P0DTC2 14-1273); test: cell-based or functional assay
[2] = target: SARS-CoV (2003) spike protein borne on lentiviral pseudovirus (SARS-CoV (2003), UniProt P59594 14-1255); test: cell-based or functional assay
[3] = target: T1, S2 subunit of the SARS-CoV-2 spike protein, WA01/2020 strain (SARS-CoV-2, WA01/2020 strain, UniProt P0DTC2 686-1213); test: ELISA on S2 (S2 Binding EC50)
[4] = target: T2, MERS-COV (S1+S2); test: dose-response ELISA on coated spike antigen
T2 chain: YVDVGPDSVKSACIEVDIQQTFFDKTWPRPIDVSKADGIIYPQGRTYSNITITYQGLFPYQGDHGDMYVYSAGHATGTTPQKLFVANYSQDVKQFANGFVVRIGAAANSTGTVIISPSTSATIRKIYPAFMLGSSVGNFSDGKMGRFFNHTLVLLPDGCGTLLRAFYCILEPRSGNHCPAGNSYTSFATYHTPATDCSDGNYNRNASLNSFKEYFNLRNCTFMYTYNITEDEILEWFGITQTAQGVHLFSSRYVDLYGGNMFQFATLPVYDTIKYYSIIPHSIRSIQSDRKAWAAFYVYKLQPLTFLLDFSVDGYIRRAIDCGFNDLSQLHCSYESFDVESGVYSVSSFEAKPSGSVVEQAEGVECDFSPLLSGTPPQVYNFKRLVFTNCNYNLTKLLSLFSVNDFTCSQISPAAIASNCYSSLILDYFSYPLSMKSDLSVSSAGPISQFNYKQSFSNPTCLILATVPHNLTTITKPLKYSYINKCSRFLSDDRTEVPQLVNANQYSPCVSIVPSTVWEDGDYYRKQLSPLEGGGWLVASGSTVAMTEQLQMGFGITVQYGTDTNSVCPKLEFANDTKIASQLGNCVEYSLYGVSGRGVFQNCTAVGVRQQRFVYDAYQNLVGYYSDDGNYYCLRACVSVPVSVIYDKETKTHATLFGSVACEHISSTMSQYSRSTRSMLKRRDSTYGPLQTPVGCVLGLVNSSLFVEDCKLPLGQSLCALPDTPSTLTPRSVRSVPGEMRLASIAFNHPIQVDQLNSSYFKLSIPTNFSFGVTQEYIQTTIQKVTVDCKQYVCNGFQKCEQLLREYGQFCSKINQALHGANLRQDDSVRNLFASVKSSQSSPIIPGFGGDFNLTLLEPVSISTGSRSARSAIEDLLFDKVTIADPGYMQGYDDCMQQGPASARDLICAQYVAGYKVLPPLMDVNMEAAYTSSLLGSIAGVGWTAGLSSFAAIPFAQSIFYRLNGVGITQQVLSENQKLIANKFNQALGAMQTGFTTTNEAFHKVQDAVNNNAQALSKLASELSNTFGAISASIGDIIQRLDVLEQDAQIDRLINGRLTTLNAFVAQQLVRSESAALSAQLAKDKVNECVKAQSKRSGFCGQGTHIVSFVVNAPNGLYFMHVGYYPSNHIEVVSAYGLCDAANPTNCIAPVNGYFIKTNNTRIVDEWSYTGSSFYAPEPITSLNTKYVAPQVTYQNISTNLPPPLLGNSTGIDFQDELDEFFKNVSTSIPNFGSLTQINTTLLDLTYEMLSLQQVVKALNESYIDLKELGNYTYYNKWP

[5] = target: T3, MERS-COV (S2); test: dose-response ELISA on coated spike antigen
T3 chain: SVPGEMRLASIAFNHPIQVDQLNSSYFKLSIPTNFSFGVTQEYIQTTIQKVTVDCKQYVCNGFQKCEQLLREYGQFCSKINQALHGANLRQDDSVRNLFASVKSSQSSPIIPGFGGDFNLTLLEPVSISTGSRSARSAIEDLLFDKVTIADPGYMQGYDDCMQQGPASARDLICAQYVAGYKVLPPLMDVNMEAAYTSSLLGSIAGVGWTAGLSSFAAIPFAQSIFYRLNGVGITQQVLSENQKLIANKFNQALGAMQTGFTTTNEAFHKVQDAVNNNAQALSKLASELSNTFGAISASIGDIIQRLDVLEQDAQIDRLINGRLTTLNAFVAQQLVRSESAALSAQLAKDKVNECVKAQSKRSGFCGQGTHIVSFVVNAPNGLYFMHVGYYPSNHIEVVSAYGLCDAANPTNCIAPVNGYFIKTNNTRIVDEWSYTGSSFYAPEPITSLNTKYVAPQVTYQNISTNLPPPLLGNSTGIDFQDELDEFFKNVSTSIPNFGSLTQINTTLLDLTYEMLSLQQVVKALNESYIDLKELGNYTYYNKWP

[6] = target: T4, S1 subunit of the SARS-CoV-2 spike protein, WA01/2020 strain (SARS-CoV-2, WA01/2020 strain, UniProt P0DTC2 16-685); test: ELISA screening, antibody concentration not given
[7] = target: T5, SARS-CoV-2 nucleocapsid (N) protein (SARS-CoV-2, UniProt P0DTC9 1-419); test: ELISA screening, antibody concentration not given
[8] = target: T1, S2 subunit of the SARS-CoV-2 spike …; test: dose-response ELISA; antigen taken from the column 'Structural data'
[9] = target: T2, MERS-COV (S1+S2); test: dose-response ELISA on coated spike antigen
[10] = target: T3, MERS-COV (S2); test: dose-response ELISA on coated spike antigen
[11] = target: T4, S1 subunit of the SARS-CoV-2 spike …
[12] = target: T4, S1 subunit of the SARS-CoV-2 spike …; test: dose-response ELISA; antigen taken from the column 'Structural data'
[13] = target: T6, SARS-CoV-2 spike (S) protein trimer, WA01/2020 strain (SARS-CoV-2, WA01/2020 strain, UniProt P0DTC2 16-1213)
[14] = target: T4, S1 subunit of the SARS-CoV-2 spike …; test: ELISA, antibody at 0.1 ug/mL
[15] = target: T1, S2 subunit of the SARS-CoV-2 spike …; test: ELISA, antibody at 0.1 ug/mL
[16] = target: T5, SARS-CoV-2 nucleocapsid (N) protein; test: ELISA, antibody at 0.1 ug/mL
[17] = target: T6, SARS-CoV-2 spike (S) protein trimer, …; test: dose-response ELISA; antigen taken from the column 'Structural data'

| Binder | Pseudo Neut, WA1/2020 IC50 (pM) [1] | Pseudo Neut, SARS-CoV 2003 IC50 [2] | EC50 [3] | binding result [6] | binding result [7] | EC50 [8] | further results |
| --- | --- | --- | --- | --- | --- | --- | --- |
| B1 | 133 pM | 27 nM | 0.071 nM | no binding (tested: not printed) | no binding (tested: not printed) | 0.071 nM | binding result [4]: no binding (tested: 10000 ng/ml); binding result [5]: no binding (tested: 10000 ng/ml) |
| B2 | 889 pM | 115 nM | 1.22 nM | no binding (tested: not printed) | no binding (tested: not printed) | 1.22 nM | binding result [9]: no binding (tested: 10000 ng/ml); binding result [10]: no binding (tested: 10000 ng/ml) |
| B3 |  |  |  |  |  |  | Kd [11]: 0.69 nM; EC50 [12]: 0.025 nM |
| B4 |  |  |  |  |  |  | Kd [13]: 15.6 nM; binding result [14]: no binding (tested: 0.1 ug/mL); binding result [15]: no binding (tested: 0.1 ug/mL); binding result [16]: no binding (tested: 0.1 ug/mL); EC50 [17]: 1.15 nM |
